# From patent US20210388087A1 (Chugai, published 2021)
# Changes are numbered by the printed parent chain. Names and notes keep the numbering of the source.
# T1: Human CD3eg linker (human)
# T1 construct: single-chain construct; also called recombinant human CD3
# T1 chain: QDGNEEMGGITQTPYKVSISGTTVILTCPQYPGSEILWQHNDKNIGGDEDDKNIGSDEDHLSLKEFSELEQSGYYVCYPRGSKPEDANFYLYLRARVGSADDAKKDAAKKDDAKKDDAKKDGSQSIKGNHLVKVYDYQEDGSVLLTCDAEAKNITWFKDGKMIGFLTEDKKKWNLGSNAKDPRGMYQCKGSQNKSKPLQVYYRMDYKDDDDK
# B1: dBBDu183H A98E/dBBDu072L (antibody, name in Kabat numbering, V domains shown)
# VH: QVQLVESGGGLVQPGRSLRLSCAASGFTFSNAWMHWVRQAPGKGLEWVAQIKDKGNAYAAYYAPSVKGRFTISRDDSKNSIYLQMNSLKTEDTAVYYCHYVHYESASTVLPAFGVDAWGQGTTVTVSS
# VL: DIVMTQSPLSLPVTPGEPASISCQASQELVHMNRNTYLHWYQQKPGQAPRLLIYKVSNRFPGVPDRFSGSGSGTDFTLKISRVEAEDVGVYYCAQGTSVPFTFGQGTKLEIK
# B2: dBBDu183H A98F/dBBDu072L (antibody, name in Kabat numbering, V domains shown)
# VH: B1 VH with E104F
# VL: B1 VL
# B3: dBBDu183H A98G/dBBDu072L (antibody, name in Kabat numbering, V domains shown)
# VH: B1 VH with E104G
# VL: B1 VL
# B4: dBBDu183H A98H/dBBDu072L (antibody, name in Kabat numbering, V domains shown)
# VH: B1 VH with E104H
# VL: B1 VL
# B5: dBBDu183H A98K/dBBDu072L (antibody, name in Kabat numbering, V domains shown)
# VH: B1 VH with E104K
# VL: B1 VL
# B6: dBBDu183H A98N/dBBDu072L (antibody, name in Kabat numbering, V domains shown)
# VH: B1 VH with E104N
# VL: B1 VL
# B7: dBBDu183H A98Q/dBBDu072L (antibody, name in Kabat numbering, V domains shown)
# VH: B1 VH with E104Q
# VL: B1 VL
# B8: dBBDu183H A98R/dBBDu072L (antibody, name in Kabat numbering, V domains shown)
# VH: B1 VH with E104R
# VL: B1 VL
# B9: dBBDu183H A98S/dBBDu072L (antibody, name in Kabat numbering, V domains shown)
# VH: B1 VH with E104S
# VL: B1 VL
# B10: dBBDu183H A98T/dBBDu072L (antibody, name in Kabat numbering, V domains shown)
# VH: B1 VH with E104T
# VL: B1 VL
# B11: dBBDu183H A98V/dBBDu072L (antibody, name in Kabat numbering, V domains shown)
# VH: B1 VH with E104V
# VL: B1 VL
# B12: dBBDu183H A98W/dBBDu072L (antibody, name in Kabat numbering, V domains shown)
# VH: B1 VH with E104W
# VL: B1 VL
# B13: dBBDu183H A98Y/dBBDu072L (antibody, name in Kabat numbering, V domains shown)
# VH: B1 VH with E104Y
# VL: B1 VL
# B14: dBBDu183H A100D/dBBDu072L (antibody, name in Kabat numbering, V domains shown)
# VH: B1 VH with E104A, A106D
# VL: B1 VL
# B15: dBBDu183H A100E/dBBDu072L (antibody, name in Kabat numbering, V domains shown)
# VH: B1 VH with E104A, A106E
# VL: B1 VL
# B16: dBBDu183H A100F/dBBDu072L (antibody, name in Kabat numbering, V domains shown)
# VH: B1 VH with E104A, A106F
# VL: B1 VL
# B17: dBBDu183H A100G/dBBDu072L (antibody, name in Kabat numbering, V domains shown)
# VH: B1 VH with E104A, A106G
# VL: B1 VL
# B18: dBBDu183H A100H/dBBDu072L (antibody, name in Kabat numbering, V domains shown)
# VH: B1 VH with E104A, A106H
# VL: B1 VL
# B19: dBBDu183H A100K/dBBDu072L (antibody, name in Kabat numbering, V domains shown)
# VH: B1 VH with E104A, A106K
# VL: B1 VL
# B20: dBBDu183H A100N/dBBDu072L (antibody, name in Kabat numbering, V domains shown)
# VH: B1 VH with E104A, A106N
# VL: B1 VL
# B21: dBBDu183H A100Q/dBBDu072L (antibody, name in Kabat numbering, V domains shown)
# VH: B1 VH with E104A, A106Q
# VL: B1 VL
# B22: dBBDu183H A100R/dBBDu072L (antibody, name in Kabat numbering, V domains shown)
# VH: B1 VH with E104A, A106R
# VL: B1 VL
# B23: dBBDu183H A100S/dBBDu072L (antibody, name in Kabat numbering, V domains shown)
# VH: B1 VH with E104A, A106S
# VL: B1 VL
# B24: dBBDu183H A100T/dBBDu072L (antibody, name in Kabat numbering, V domains shown)
# VH: B1 VH with E104A, A106T
# VL: B1 VL
# B25: dBBDu183H A100V/dBBDu072L (antibody, name in Kabat numbering, V domains shown)
# VH: B1 VH with E104A, A106V
# VL: B1 VL
# B26: dBBDu183H A100W/dBBDu072L (antibody, name in Kabat numbering, V domains shown)
# VH: B1 VH with E104A, A106W
# VL: B1 VL
# B27: dBBDu183H A100Y/dBBDu072L (antibody, name in Kabat numbering, V domains shown)
# VH: B1 VH with E104A, A106Y
# VL: B1 VL
# B28: dBBDu183H A100fD/dBBDu072L (antibody, name in Kabat numbering, V domains shown)
# VH: B1 VH with E104A, A112D
# VL: B1 VL
# B29: dBBDu183H A100fE/dBBDu072L (antibody, name in Kabat numbering, V domains shown)
# VH: B1 VH with E104A, A112E
# VL: B1 VL
# B30: dBBDu183H A100fF/dBBDu072L (antibody, name in Kabat numbering, V domains shown)
# VH: B1 VH with E104A, A112F
# VL: B1 VL
# B31: dBBDu183H A100fG/dBBDu072L (antibody, name in Kabat numbering, V domains shown)
# VH: B1 VH with E104A, A112G
# VL: B1 VL
# B32: dBBDu183H A100fH/dBBDu072L (antibody, name in Kabat numbering, V domains shown)
# VH: B1 VH with E104A, A112H
# VL: B1 VL
# B33: dBBDu183H A100fK/dBBDu072L (antibody, name in Kabat numbering, V domains shown)
# VH: B1 VH with E104A, A112K
# VL: B1 VL
# B34: dBBDu183H A100fN/dBBDu072L (antibody, name in Kabat numbering, V domains shown)
# VH: B1 VH with E104A, A112N
# VL: B1 VL
# B35: dBBDu183H A100fQ/dBBDu072L (antibody, name in Kabat numbering, V domains shown)
# VH: B1 VH with E104A, A112Q
# VL: B1 VL
# B36: dBBDu183H A100fR/dBBDu072L (antibody, name in Kabat numbering, V domains shown)
# VH: B1 VH with E104A, A112R
# VL: B1 VL
# B37: dBBDu183H A100fS/dBBDu072L (antibody, name in Kabat numbering, V domains shown)
# VH: B1 VH with E104A, A112S
# VL: B1 VL
# B38: dBBDu183H A100fT/dBBDu072L (antibody, name in Kabat numbering, V domains shown)
# VH: B1 VH with E104A, A112T
# VL: B1 VL
# B39: dBBDu183H A100fV/dBBDu072L (antibody, name in Kabat numbering, V domains shown)
# VH: B1 VH with E104A, A112V
# VL: B1 VL
# B40: dBBDu183H A100fW/dBBDu072L (antibody, name in Kabat numbering, V domains shown)
# VH: B1 VH with E104A, A112W
# VL: B1 VL
# B41: dBBDu183H A100fY/dBBDu072L (antibody, name in Kabat numbering, V domains shown)
# VH: B1 VH with E104A, A112Y
# VL: B1 VL
# B42: dBBDu183H A102D/dBBDu072L (antibody, name in Kabat numbering, V domains shown)
# VH: B1 VH with E104A, A117D
# VL: B1 VL
# B43: dBBDu183H A102E/dBBDu072L (antibody, name in Kabat numbering, V domains shown)
# VH: B1 VH with E104A, A117E
# VL: B1 VL
# B44: dBBDu183H A102F/dBBDu072L (antibody, name in Kabat numbering, V domains shown)
# VH: B1 VH with E104A, A117F
# VL: B1 VL
# B45: dBBDu183H A102G/dBBDu072L (antibody, name in Kabat numbering, V domains shown)
# VH: B1 VH with E104A, A117G
# VL: B1 VL
# Molecular target: T1, Human CD3eg linker
# Assay: SPR, vs unmutated H183/L072
row,Binder,fold change of affinity [fold]
1,B1,0.3
2,B2,12.1
3,B3,1.4
4,B4,5.9
5,B5,4.6
6,B6,1.5
7,B7,0.7
8,B8,2.7
9,B9,1
10,B10,2
11,B11,4.7
12,B12,7
13,B13,25.1
14,B14,0.5
15,B15,0.5
16,B16,1.4
17,B17,1.4
18,B18,1.2
19,B19,1.9
20,B20,0.8
21,B21,0.8
22,B22,2.1
23,B23,1.1

row,Binder,fold change of affinity [fold]
1,B24,0.9
2,B25,1.2
3,B26,1.9
4,B27,1.7
5,B28,0.4
6,B29,0.5
7,B30,1.1
8,B31,1.5
9,B32,1.2
10,B33,1.4
11,B34,1.3
12,B35,1.2
13,B36,1.6
14,B37,1.7
15,B38,1.6
16,B39,1
17,B40,0.7
18,B41,1.5
19,B42,1.3
20,B43,1.1
21,B44,2
22,B45,1
